In patent US20160235814A1 one finds ROS production by IC-activated human neutrophils data, which are given here for one substance.

In the assay the target is human IgG (coated on 96-well plates to form immune complexes, IC) (human). The experiment in a line: cell-based or functional assay.

For “Human sCD32 (SM101), recombinant soluble human FcγRIIB (from UniProt P31994 46-221) (receptor)”, the ROS production by IC-activated human neutrophils is, setting by setting: (scale: % reduction of ROS production at 0.01 mg/ml sCD32) 30; (scale: % reduction of ROS production at 0.1 mg/ml sCD32) 65; (scale: % reduction of ROS production at 0.5 mg/ml sCD32) 75.
